# Positions count from the first letter of the chain named.
# B1: LRRK2 RocCOR tandem domain (LexA-BD bait, wild type) [human] / TUBB4 C terminus (Phe-317 to Ala-444), GAL4-AD prey [human] (parent)
# chain 1: KAVPYNRMKLMIVGNTGSGKTTLLQQLMKTKKSDLGMQSATVGIDVKDWPIQIRDKRKRDLVLNVWDFAGREEFYSTHPHFMTQRALYLAVYDLSKGQAEVDAMKPWLFNIKARASSSPVILVGTHLDVSDEKQRKACMSKITKELLNKRGFPAIRDYHFVNATEESDALAKLRKTIINESLNFKIRDQLVVGQLIPDCYVELEKIILSERKNVPIEFPVIDRKRLLQLVRENQLQLDENELPHAVHFLNESGVLLHFQDPALQLSDLYFVEPKWLCKIMAQILTVKVEGCPKHPKGIISRRDVEKFLSKKRKFPKNYMSQYFKLLEKFQIALPIGEEYLLVPSSLSDHRPVIELPHCENSEIIIRLYEMPYFPMGFWSRLINRLLEISPYMLSGRERALRPNRMYWRQGIYL
# chain 2: FRGRMSMKEVDEQMLSVQSKNSSYFVEWIPNNVKTAVCDIPPRGLKMAATFIGNSTAIQELFKRISEQFTAMFRRKAFLHWYTGEGMDEMEFTEAESNMNDLVSEYQQYQDATAEEGEFEEEAEEEVA
# B2: LRRK2 RocCOR tandem domain (LexA-BD bait, wild type) [human] / TUBB C terminus (Phe-317 to the stop codon), GAL4-AD prey [human] (parent)
# chain 1: B1 chain 1
# chain 2: B1 chain 2 with S16N, S19N, A49V, G117E, F119D, E120F, E121G, A123E, E124A, V127E
# Variants of: B1
# Assay: quantitative yeast two-hybrid (Q-YTH)
# Conditions: with TUBB4 C terminus (Phe-317 to Ala-444), n = 5, read off a plot
row,Variant,percent of parent
1,chain 1 KAVPYNRMKLMIVGNAGSGKTTLLQQLMKTKKSDLGMQSATVGIDVKDWPIQIRDKRKRDLVLNVWDFAGREEFYSTHPHFMTQRALYLAVYDLSKGQAEVDAMKPWLFNIKARASSSPVILVGTHLDVSDEKQRKACMSKITKELLNKRGFPAIRDYHFVNATEESDALAKLRKTIINESLNFKIRDQLVVGQLIPDCYVELEKIILSERKNVPIEFPVIDRKRLLQLVRENQLQLDENELPHAVHFLNESGVLLHFQDPALQLSDLYFVEPKWLCKIMAQILTVKVEGCPKHPKGIISRRDVEKFLSKKRKFPKNYMSQYFKLLEKFQIALPIGEEYLLVPSSLSDHRPVIELPHCENSEIIIRLYEMPYFPMGFWSRLINRLLEISPYMLSGRERALRPNRMYWRQGIYL [chain 1 T16A],115%
2,chain 1 KAVPYNRMKLMIVGNDGSGKTTLLQQLMKTKKSDLGMQSATVGIDVKDWPIQIRDKRKRDLVLNVWDFAGREEFYSTHPHFMTQRALYLAVYDLSKGQAEVDAMKPWLFNIKARASSSPVILVGTHLDVSDEKQRKACMSKITKELLNKRGFPAIRDYHFVNATEESDALAKLRKTIINESLNFKIRDQLVVGQLIPDCYVELEKIILSERKNVPIEFPVIDRKRLLQLVRENQLQLDENELPHAVHFLNESGVLLHFQDPALQLSDLYFVEPKWLCKIMAQILTVKVEGCPKHPKGIISRRDVEKFLSKKRKFPKNYMSQYFKLLEKFQIALPIGEEYLLVPSSLSDHRPVIELPHCENSEIIIRLYEMPYFPMGFWSRLINRLLEISPYMLSGRERALRPNRMYWRQGIYL [chain 1 T16D],62%
3,chain 1 KAVPYNRMKLMIVGNTGSGKTTLLQQLMKTKKSDLGMQSATVGIDVKDWPIQIRDKRKRDLVLNVWDFAGREEFYSTHPHFMTQRALYLAVYDLSKGQAEVDAMKPWLFNIKARASSSPVILVGTHLDVSDEKQRKACMSKITKELLNKRGFPAIRDYHFVNAAEESDALAKLRKTIINESLNFKIRDQLVVGQLIPDCYVELEKIILSERKNVPIEFPVIDRKRLLQLVRENQLQLDENELPHAVHFLNESGVLLHFQDPALQLSDLYFVEPKWLCKIMAQILTVKVEGCPKHPKGIISRRDVEKFLSKKRKFPKNYMSQYFKLLEKFQIALPIGEEYLLVPSSLSDHRPVIELPHCENSEIIIRLYEMPYFPMGFWSRLINRLLEISPYMLSGRERALRPNRMYWRQGIYL [chain 1 T164A],86%

# Variants of: B2
# Assay: quantitative yeast two-hybrid (Q-YTH)
# Conditions: with TUBB C terminus (Phe-317 to the stop codon), n = 5, read off a plot
row,Variant,percent of parent
1,chain 1 KAVPYNRMKLMIVGNDGSGKTTLLQQLMKTKKSDLGMQSATVGIDVKDWPIQIRDKRKRDLVLNVWDFAGREEFYSTHPHFMTQRALYLAVYDLSKGQAEVDAMKPWLFNIKARASSSPVILVGTHLDVSDEKQRKACMSKITKELLNKRGFPAIRDYHFVNATEESDALAKLRKTIINESLNFKIRDQLVVGQLIPDCYVELEKIILSERKNVPIEFPVIDRKRLLQLVRENQLQLDENELPHAVHFLNESGVLLHFQDPALQLSDLYFVEPKWLCKIMAQILTVKVEGCPKHPKGIISRRDVEKFLSKKRKFPKNYMSQYFKLLEKFQIALPIGEEYLLVPSSLSDHRPVIELPHCENSEIIIRLYEMPYFPMGFWSRLINRLLEISPYMLSGRERALRPNRMYWRQGIYL [chain 1 T16D],58%
2,chain 1 KAVPYNRMKLMIVGNTGSGKTTLLQQLMKTKKSDLGMQSATVGIDVKDWPIQIRDKRKRDLVLNVWDFAGREEFYSTHPHFMTQRALYLAVYDLSKGQAEVDAMKPWLFNIKARASSSPVILVGTHLDVSDEKQRKACMSKITKELLNKRGFPAIRDYHFVNAAEESDALAKLRKTIINESLNFKIRDQLVVGQLIPDCYVELEKIILSERKNVPIEFPVIDRKRLLQLVRENQLQLDENELPHAVHFLNESGVLLHFQDPALQLSDLYFVEPKWLCKIMAQILTVKVEGCPKHPKGIISRRDVEKFLSKKRKFPKNYMSQYFKLLEKFQIALPIGEEYLLVPSSLSDHRPVIELPHCENSEIIIRLYEMPYFPMGFWSRLINRLLEISPYMLSGRERALRPNRMYWRQGIYL [chain 1 T164A],97%
3,chain 1 KAVPYNRMKLMIVGNTGSGKTTLLQQLMKTKKSDLGMQSATVGIDVKDWPIQIRDKRKRDLVLNVWDFAGREEFYSTHPHFMTQRALYLAVYDLSKGQAEVDAMKPWLFNIKARASSSPVILVGTHLDVSDEKQRKACMSKITKELLNKRGFPAIRDYHFVNADEESDALAKLRKTIINESLNFKIRDQLVVGQLIPDCYVELEKIILSERKNVPIEFPVIDRKRLLQLVRENQLQLDENELPHAVHFLNESGVLLHFQDPALQLSDLYFVEPKWLCKIMAQILTVKVEGCPKHPKGIISRRDVEKFLSKKRKFPKNYMSQYFKLLEKFQIALPIGEEYLLVPSSLSDHRPVIELPHCENSEIIIRLYEMPYFPMGFWSRLINRLLEISPYMLSGRERALRPNRMYWRQGIYL [chain 1 T164D],35%
4,chain 1 KAVPYNRMKLMIVGNAGSGKTTLLQQLMKTKKSDLGMQSATVGIDVKDWPIQIRDKRKRDLVLNVWDFAGREEFYSTHPHFMTQRALYLAVYDLSKGQAEVDAMKPWLFNIKARASSSPVILVGTHLDVSDEKQRKACMSKITKELLNKRGFPAIRDYHFVNATEESDALAKLRKTIINESLNFKIRDQLVVGQLIPDCYVELEKIILSERKNVPIEFPVIDRKRLLQLVRENQLQLDENELPHAVHFLNESGVLLHFQDPALQLSDLYFVEPKWLCKIMAQILTVKVEGCPKHPKGIISRRDVEKFLSKKRKFPKNYMSQYFKLLEKFQIALPIGEEYLLVPSSLSDHRPVIELPHCENSEIIIRLYEMPYFPMGFWSRLINRLLEISPYMLSGRERALRPNRMYWRQGIYL [chain 1 T16A],130%

# Source: publication PMC3887213
